Measurements as given in patent publication US20160038588A1, “Myostatin Antagonism in Human Subjects” (AMGEN INC., priority 2013, published 2016).

System: mdx mice
Experiment: Treatment of aged mdx mice (Duchenne muscular dystrophy model)
Assay type: in vivo, mouse
Details: 10 mg/kg s.c. every other day, three months, vs huFc
Experimental: Muscular dystrophy is one of those disorders. The mouse model for Duchenne's muscular dystrophy is the Duchenne mdx mouse (Jackson Laboratories, Bar Harbor, Me.). Aged (10 month old) mdx mice were injected with either the peptibody 1× mTN8-19-33 (n=8/group) or with the vehicle huFc protein (N=6/group) for a three month period of time. The dosing schedule was every other day, 10 mg/kg, by subcutaneous injection.

| Substance | body weight | fat percentage of body weight | lean body mass to fat mass ratio (NMR) |
| --- | --- | --- | --- |
| 1× mTN8-19-33: 1× affinity-matured peptibody; peptide PESQGHCTRWPWMCPPQGWG | Significant increases in body weight | decreased | significantly increased |

System: not listed separately
Experiment: In vivo pharmacokinetics in CD1 nu/nu mice
Parameters: species or system mouse
Details: 10 mg/kg and 5 mg/kg, peptibodies without LE sequences
Experimental: In vivo pharmacokinetics experiments were performed using representative peptibodies without the LE sequences.

| Substance | half-life |
| --- | --- |
| 1× mTN8-19-7: 1× affinity-matured peptibody; peptide LADHGQCIRWPWMCPPEGWE | about 65 hours |
| 1× mTN8-19-22: 1× affinity-matured peptibody; peptide TFSQGHCTRWPWMCPPQGWG | about 50.2 hours |

System: CD1 nu/nu mice
Experiment: In vivo anabolic activity in CD1 nu/nu mouse model
Details: 1× peptibody; 1, 3, 10 mg/kg s.c. twice or once weekly, 14 days, vs huFc control
Excerpt: In Vivo Anabolic Activity of Exemplary Peptibodies
The CD1 nu/nu mouse model (Charles River Laboratories, Massachusetts) was used to determine the in vivo efficacy of the peptibodies of the present invention which included the human Fc region (huFc). This model responded to the inhibitors of the present invention with a rapid anabolic response which was associated with increased dry muscle mass and an increase in myofibrillar proteins but was not associated with accumulation in body water content.
A group of 10 8 week old CD1 nu/nu mice were treated twice weekly or once weekly with dosages of 1 mg/kg, 3 mg/kg and 10 mg/kg (subcutaneous injection). The control group of 10 8 week old CD1 nu/nu mice received a twice weekly (subcutaneous) injection of huFc (vehicle) at 10 mg/kg. The animals were weighed every other day and lean body mass determined by NMR on day 0 and day 13. The animals are then scarified at day 14 and the size of the gastrocnemius muscle determined.
In another example, the 1× mTN8-19-32 peptibody was administered to CD1 nu/nu mice in a biweekly injection of 1 mg/kg, 3 mg/kg, 10 mg/kg, and 30 mg/kg compared with the huFc control (vehicle).
CD1 nu/nu male mice (10 animals per group) were treated with twice weekly injections of 1 mg/kg and 3 mg/kg of 1× mTN8-19-7 and 2× mTN8-19-7 for 35 days, while the control group (10 animals) received twice weekly injections of huFc (3 mg/kg).

| Substance | total body weight |
| --- | --- |
| 1× mTN8-19-21: 1× affinity-matured peptibody; peptide SEYQGLCTRWPWMCPPQGWK | increase in body weight compared with the control |

Same assay, conditions: biweekly injection 1, 3, 10, 30 mg/kg vs huFc control

| Substance | total body weight |
| --- | --- |
| 1× mTN8-19-32: 1× affinity-matured peptibody; peptide VADHGHCTRWPWMCPPQGWG | increase in total body weight |

Same assay, conditions: biweekly injection 1, 3, 10, 30 mg/kg; day 13 compared with day 0

| Substance | lean body mass (NMR) |
| --- | --- |
| 1× mTN8-19-32: 1× affinity-matured peptibody; peptide VADHGHCTRWPWMCPPQGWG | increase |

Target: T1, myostatin (Homo sapiens, UniProt O14793)
T1 construct: To produce mature myostatin, the pooled promyostatin was enzymatically cleaved between the propeptide and mature myostatin C terminal; made in house
T1 sequence (O14793 267-375): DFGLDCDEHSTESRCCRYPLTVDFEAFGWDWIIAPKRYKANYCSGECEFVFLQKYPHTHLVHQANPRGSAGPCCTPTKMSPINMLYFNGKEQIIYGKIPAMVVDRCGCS
Experiment: C2C12 pMARE-luc cell based myostatin activity assay
Details: not given
Excerpt: The antagonists including the binding agents described herein can be tested for their ability to bind myostatin and inhibit or block myostatin activity. Any number of assays or animal tests may be used to determine the ability of the agent to inhibit or block myostatin activity. Several assays used for characterizing the peptides and peptibodies of the present invention are described in the Examples below. One assay is the C2C12 pMARE-luc assay which makes use of a myostatin-responsive cell line (C2C12 myoblasts) transfected with a luciferase reporter vector containing myostatin/activin response elements (MARE). Exemplary peptibodies are assayed by pre-incubating a series of peptibody dilutions with myostatin, and then exposing the cells to the incubation mixture. The resulting luciferase activity is determined, and a titration curve is generated from the series of peptibody dilutions. The IC50 (the concentration of peptibody to achieve 50% inhibition of myostatin activity as measured by luciferase activity) was then determined. A second assay described below is a BIAcore® assay to determine the kinetic parameters ka (association rate constant), kd (dissociation rate constant), and KD (dissociation equilibrium constant) for the myostatin binding agents and other antagonists such as antibodies capable of binding myostatin and its receptor. Lower dissociation equilibrium constants (KD, expressed in nM) indicated a greater affinity of the peptibody for myostatin. […] These assays are described in Example 3.
C2C12 Cell Based Myostatin Activity Assay
A myostatin-responsive reporter cell line was generated by transfection of C2C12 myoblast cells (ATCC No: CRL-1772) with a pMARE-luc construct. The pMARE-luc construct was made by cloning twelve repeats of the CAGA sequence, representing the myostatin/activin response elements (Dennler et al. EMBO 17: 3091-3100 (1998)) into a pLuc-MCS reporter vector (Stratagene cat #219087) upstream of the TATA box. The myoblast C2C12 cells naturally express myostatin/activin receptors on its cell surface. When myostatin binds the cell receptors, the Smad pathway is activated, and phosphorylated Smad binds to the response element (Macias-Silva et al. Cell 87:1215 (1996)), resulting in the expression of the luciferase gene. Luciferase activity is then measured using a commercial luciferase reporter assay kit (cat # E4550, Promega, Madison, Wis.) according to manufacturer's protocol. A stable line of C2C12 cells that had been transfected with pMARE-luc (C2C12/pMARE clone #44) was used to measure myostatin activity according to the following procedure.
Equal numbers of the reporter cells (C2C12/pMARE clone #44) were plated into 96 well cultures. A first round screening using two dilutions of peptibodies was performed with the myostatin concentration fixed at 4 nM. Recombinant mature myostatin was preincubated for 2 hours at room temperature with peptibodies at 40 nM and 400 nM respectively. The reporter cell culture was treated with the myostatin with or without peptibodies for six hours. Myostatin activity was measured by determining the luciferase activity in the treated cultures. This assay was used to initially identify peptibody hits that inhibited the myostatin signaling activity in the reporter assay. Subsequently, a nine point titration curve was generated with the myostatin concentration fixed at 4 nM. The myostatin was preincubated with each of the following nine concentrations of peptibodies: […], 0.4 nM, 4 nM, 20 nM, 40 nM, 200 nM, 400 nM, 2 uM and 4 uM for two hours before adding the mixture to the reporter cell culture. The IC50 values were for a number of exemplary peptibodies are provided in Tables III and for affinity matured peptibodies, in Table VIII.

| Substance | inhibition of myostatin activity in cell-based assay |
| --- | --- |
| L2: peptibody; peptide MEMLDSLFELLKDMVPISKA | inhibit myostatin activity |

Same assay, conditions: affinity matured peptibodies; a range of values is given

| Substance | IC50 |
| --- | --- |
| 1× mTN8-19-21: 1× affinity-matured peptibody; peptide SEYQGLCTRWPWMCPPQGWK | 2.77 to 3.6 nM |
| 1× mTN8-19-22: 1× affinity-matured peptibody; peptide TFSQGHCTRWPWMCPPQGWG | 1.93 to 3.26 nM |
| 1× mTN8-19-32: 1× affinity-matured peptibody; peptide VADHGHCTRWPWMCPPQGWG | 1.84 to 3.35 nM |
| 1× mTN8-19-33: 1× affinity-matured peptibody; peptide PESQGHCTRWPWMCPPQGWG | 2.15 to 2.75 nM |
| mTN8-19 con1: affinity-matured peptibody; peptide VATQGQCTRWPWMCPPQGWG | 1 to 4.4 nM |
| mTN8-19-2: affinity-matured peptibody; peptide YPEQGLCTRWPWMCPPQTLA | 7.51 to 34.4 nM |
| mTN8-19-4: affinity-matured peptibody; peptide MITQGQCTRWPWMCPPQPSG | 16.7 nM |
| mTN8-19-5: affinity-matured peptibody; peptide AGAQEHCTRWPWMCAPNDWI | 3.5 to 7.74 nM |
| mTN8-19-6: affinity-matured peptibody; peptide GVNQGQCTRWRWMCPPNGWE | 17.3 nM |
| mTN8-19-9: affinity-matured peptibody; peptide TQTHAQCTRWPWMCPPQWEG | 18.8 to 23 nM |
| mTN8-19-10: affinity-matured peptibody; peptide VVTQGHCTLWPWMCPPQRWR | 5.25 to 7.4 nM |
| mTN8-19-11: affinity-matured peptibody; peptide IYPHDQCTRWPWMCPPQPYP | 28.7 nM |
| mTN8-19-12: affinity-matured peptibody; peptide SYWQGQCTRWPWMCPPQWRG | 980 nM |
| mTN8-19-13: affinity-matured peptibody; peptide MWQQGHCTRWPWMCPPQGWG | 20 nM |
| mTN8-19-14: affinity-matured peptibody; peptide EFTQWHCTRWPWMCPPQRSQ | 4.07 to 6.56 nM |
| mTN8-19-16: affinity-matured peptibody; peptide YQTQGLCTRWPWMCPPQSQR | 4.65 nM |
| mTN8-19-23: affinity-matured peptibody; peptide PGAHDHCTRWPWMCPPQSRY | 6.58 nM |
| mTN8-19-24: affinity-matured peptibody; peptide VAEEWHCRRWPWMCPPQDWR | 1.67 to 2.93 nM |
| mTN8-19-27: affinity-matured peptibody; peptide ADTQGHCTRWPWMCPPQHWF | 4.84 to 4.92 nM |
| mTN8-19-28: affinity-matured peptibody; peptide SGPQGHCTRWPWMCAPQGWF | 4.39 nM |
| mTN8-19-29: affinity-matured peptibody; peptide TLVQGHCTRWPWMCPPQRWV | 6.36 nM |
| mTN8-19-34: affinity-matured peptibody; peptide IPAHGHCTRWPWMCPPQRWR | 5.03 to 5.07 nM |

Same assay, conditions: pMARE luc cell-based assay, myostatin 4 nM

| Substance | IC50 |
| --- | --- |
| Linear-20: peptibody; peptide YREMSMLEGLLDVLERLQHY | ~11 nM |
| TN12-34: peptibody; peptide AHWCEQGPWRYGNICMAY | ~30 nM |
